The results in this text go back to the DeepSol protein solubility set.

A short description of the data set: soluble on expression in E. coli; label from the status in PepcDB or PDB records.
Turning to “MNEFEDLLNSVSQVETGDVVSAEVLTVDATQANVAISGTGVEGVLTLRELTNDRDADINDFVKVGEVLDVLVLRQVVGKDTDTVTYLVSKKRLEARKAWDKLVGREEEVVTVKGTRAVKGGLSVEFEGVRGFIPASMLDTRFVRNAERFVGQEFDTKIKEVNAKENRFILSRREVVEAATAAARAEVFGKLAVGDVVTGKVARITSFGAFVDLGGVDGLVHLTELSHERNVSPKSVVTVGEEIEVKILDLNEEEGRVSLSLKATVPGPWDGVEQKLAKGDVVEGTVKRLTDFGAFVEVLPGIDGLVHVSQISHKRIENPKEALKVGQEVQVKVLEVNADAERVSLSIKALEERPAQEEGQKEEKRAARPRRPRRQEKRDFELPETQTGFSMADLFGDIELLEHHHHHH”, the “soluble on expression in E. coli” value is “soluble”. As for “MGSDKIHHHHHHMGQPFVHPTGVTIYNPEKCFNGYTIMQAPGLGCVLIDMNGNVVRVFKDLHGFPNKLLPGGYVMGSRGRRNGKFGYQDQIDLVQVDWDGQVVWEFAKKEYIEDEGEKPQWMARQHHDYQREGNPVGYYVPGMECKTNSGNTLILSHQNCYHKKISDKQLLDDVIIEVDWDGNIVWEWHAVDHFHEYGFSAAAKLALYRNPNMHEAGGGMGDWMHINSASVLGPNKWYDKGDERFHPDNIIWDAREANIMAIISKETGKVVWKMGPDFAQDKKLRKIGQIIGQHHVHMIPQGLPGAGNILIFDNGGWAGYGAPNNVSKDGTKVDMADRSRVLELNPVTMEVVWQLKASELMDYGQPGISDYRFYSPLTSAAQRLPNGNTLITEGCGGRFFEVTRMKEVVWEFISPFNANPATIYYRAYRYPYSYVPQLPEPKETPVPMLDIRKFRVPGAASCEVQHVVGVEGTIGYPAMQQACVAAADQDLSLKDDDDDDLFSRSF”, the “soluble on expression in E. coli” value is “not soluble”.

As to “MGSDKIHHHHHHMPCMTLLRRAFAIPLLLMVSSGLALAERPAENQKIALQMYTLRSVSTLDEQFSMAHNAGFKAVELVGTHGISASEMKGLLGKYQLKAIAAHVQLGELKSNMAEVVAFNKAIGNRMIIVPWLNVEDRPNSAEGWQRFGTEMNDLGRELKKQGMQLAYHNHNFEMKKYRGKTALEIMLDAAEPENLMLEMDVAWVSLGGQDPARLLRQYKGRIYSIHAKDNTSIGIRDDEMNFAPPGEGILAWEEILPAAAKAGTQWFVAEHDLPKDPQAIISAAYQSLYEKLSKVKSK”, the “soluble on expression in E. coli” value is “not soluble”.

For the sequence “MSGIIATYLIHDDSHNLEKKAEQIALGLTIGSWTHLPHLLQEQLKQHKGNVIHVEELAEHEHTNSYLRKKVKRGIIKIEYPLLNFSPDLPAILTTTFGKLSLDGEVKLIDLTFSDELKKHFPGPKFGIDGIRNLLQVHDRPLLMSIFKGMIGRNIGYLKTQLRDQAIGGVDIVKDDEILFENALTPLTKRIVSGKEVLQSVYETYGHKTLYAVNLTGRTFDLKENAKRAVQAGADILLFNVFAYGLDVLQSLAEDDEIPVPIMAHPAVSGAYSASKLYGVSSPLLLGKLLRYAGADFSLFPSPYGSVALEKEEALAISKYLTEDDASFKKSFSVPSAGIHPGFVPFIVRDFGKDVVINAGGGIHGHPNGAQGGGKAFRTAIDATLQNKPLHEVDDINLHSALQIWGNPSYEVKL”, the “soluble on expression in E. coli” value is given as “soluble”. The same measure for “KVSSQSEDSSIKLIQITDTHLFAAEDGSLLSVNTADSFAAVVAAIGEEQVEFDAILATGDISQDHTPESYQRFVRGIQPLKKACYWLPGNHDYKPSMHSVLPTQQIQAVEHVLLGEHWQVVLLDSQVVGVPHGKLSEQQLQLLDNKLTEYPERHTLVLLHHHPLLVGSAWLDQHTLKESERFWDVVAKHSNVKAILCGHVHQDMDRIHLGARVMATPSTCVQFKPNSQDFALDNCSPGWRELTLHADGQVSTQVKRLKQGRFLPDFNSNGY”: “soluble”; for “MSTLIECGASPFIPGFALKDVRLENGLTVRVAIGGSGSPLVLLHGHPQNHTTWRKVAPTLAQNHTVILPDLRGYGDSDKPTSDPAHRTYSKRTMAQDIVMLMDALGFSRFAFVGHDRGGRVGHRLALDYPDRVTCCTFIDIAPTATMYALTDKSFATRYFWWFFLIQPFPLPETMIAHDPAFFLRKHISGQLKIEGATSQEAFNEYLRCYQNPEMIHAICEDYRAAATIDLDDDAADTSARIRCPLQLLWGGLGTVGQLYNVVGTWKEKALNVQGEALPCGHSPQEECPEYFIQKLQSFLHSVL”: “soluble”.

Regarding “GEITSAYFVCREATLQKLAAMQSIDSEQKLSALFEGSSQIISLFDRDSRFVWYNKAAYDKSIFLFGKFLCVGERFDSYLKEQYREGFNANFERVLKGEIVSYTREYTYQDKPFFLEIMLQPVYQKDELVGVSLIGNN”, the “soluble on expression in E. coli” value was “not soluble”. In the case of “MDNKLGLNKMNKTLIALAVSAAAVATGAYADGINQSGDKAGSTVYSAKGTSLEVGGRAEARLSLKDGKAQDNSRVRLNFLGKAEINDSLYGVGFYEGEFTTNDQGKNASNNSLDNRYTYAGIGGTYGEVTYGKNDGALGVITDFTDIMSYHGNTAAEKIAVADRVDNMLAYKGQFGDLGVKASYRFADRNAVDAMGNVVTETNAAKYSDNGEDGYSLSAIYTFGDTGFNVGAGYADQDDQNEYMLAASYRMENLYFAGLFTDGELAKDVDYTGYELAAGYKLGQAAFTATYNNAETAKETSADNFAIDATYYFKPNFRSYISYQFNLLDSDKVGKVASEDELAIGLRYDF”, the “soluble on expression in E. coli” value is given as “not soluble”. In the case of “MLTVGILGGGQLGWMTILEGRKLGFKFHVLEDKENAPACRVADRCFRTGQISEFVDSCDIITYEFEHIKDEVLEKCESKLIPNPQALYVKKSRIREKLFLKKHGFPVPEFLVIKRDEIIDALKSFKLPVVIKAEKLGYDGKGQYRIKKLEDANQVVKNHDKEESFIIEEFVKFEAEISCIGVRDREGKTYFYPQPFNKHEEGILIYNYVPYAKLKEAEEITKRLMELLDIVGVFTVEFFLLKDGRVLINEFAPRVHNTGHWTLDGAYTSQFENLLRAITEMPLGSTELKLPSGMVNILGKSYEEIPLKEILSVEGAKLYWYGKEKKPRRKVGHVNVVGRSKEEVVEKVERVFTLLKGSREKLPAP”, the “soluble on expression in E. coli” value is “soluble”. With “MSFVPCTTAIYAFSKNHQPVRTVQSGETFVIETYDCFQNQITSSETPFDSIDWNHINPATGPIYIEGAEPGDILAVKIEQIRLKGQGVMAVGPGLGVLGDRIPQFEAKMIPVEENRAVFDEHLSIPLNPMIGVIGVAPSGEDVSCGTPGPHGGNMDTKLITTGATVYFPVFVKGALFALGDLHAAMGDGEIGVSGIEISGEVTVTVRVMKGYSLNHPLLQNDDGIATIVSAKTLDEAVKQSVEEMVNLLLPHTPLTLNHLTMVLSAVGQTQISQVVDPLVTARFFVPRFVLEAYGIRLFED”, the “soluble on expression in E. coli” value is recorded as “not soluble”. As to “MKITYIHHSSFLVELEHVSMLFDYYAGQLPEIRKDRPLVVFASHFHGDHFAPVIFDLAKDREDVNYVLSKDISKKKVPDNLIGRVTFVKAGEKLALYTEGRKAGLEIETFKSTDEGVAFWITCEGSTIYHAGDLNNWWWEGEDKAWNHNMAANYAHEMEKMEGRTVDAAFVPLDPRLEQWFYLGMKEFMEKVDAKAVIPMHFWKDYSIIEKMRQHPSSEGWRERLVEIHREGEELAI”, the “soluble on expression in E. coli” value is recorded as “not soluble”. For the sequence “MTSDATHEEAVSLLQELGLKEYEAKCFVGLSRMSSGTAKGLSEVTDVPRTRVYDAVRILEAKGLVEVQHSSPQQFRAVPLSEATETLRDQYEERIERLQSALREMGRIEADNDEAELQEVWSLSGSDAIENRAAAISADATDEVVLVIGSEAVLTEPLIKQLNSLNPNADLIVGTGSASIRDRVEQEIPRATAFLSELDWLHSEMIPEEDAAVGRLLLVDRSTMLVSSINPQTGDEQAIFATGLRNGLIVIARRLLSQGVVEMTPLEQD”, the “soluble on expression in E. coli” value is recorded as “not soluble”.

As to “MGHHHHHHSHGGVGKKEQLSVKKLRVVLFALCCNTEQAAEHFRNPQRRIRRWLRRFQASQGENLEGKYLSFEAEEKLAEWVLTQREQQLPVNEETLFQKATKIGRSLEGGFKISYEWAVRFMLRH”, the “soluble on expression in E. coli” value is reported as “not soluble”. Consider “MGSDKIHHHHHHMLSNKNKIRKLLNGIETGDPDAALVVNEQKYIQHNPHTKEGNIGLAELFKQIAKTGPRVNMIRVFEDKDFVFAHMEYHFSTLKVAFEVFRFEDGFAVEHWDNMQLMQKVNASGRSMLDGYLITEDHDLTEFNRSRVSLFANEILIKRKLDLLIDFVCDDNFIQHSPLLADGISALRSTLSATSKQKYKITYSKIHRVLAEGNFVLSVSEGLMDEKHCSFYDLYRIEKGKIVEHWDTIEPIPPRTEWKNDNGKF”, for which the “soluble on expression in E. coli” value is given as “not soluble”. Regarding “MKLDAKSTIETGKAILGIELGSTRIKAVLIDQENKPIAQGSHTWENQLVNGLWTYSIDAIWSGLQDCYADLRSNVKKLYDTEIETLAAIGVSAMMHGYMPFNEKEEILVPFRTWRNTNTGRAAAELSELFVYNIPLRWSISHLYQAILDNEAHVKDIKFLTTLAGYVHWQITGEKVLGIGDASGMLPIDPTTNNYSAEMVAKFNNLIASKEYSWKLEDILPKVLSAGENAGVLTPEGCKKLDASGHLKAGIPVCPPEGDAGTGMVATNAVKQRTGNVSAGTSSFSMIVLEKELSKPYEMIDMVTTPDGSLVAMVHCNNCTSDLNAWVNLFKEYQELLGIPVDMDELYGKLYNIALTGDTDCGGLLSYNYISGEPVTGLAEGRPLFVRSANDKFNLANFMRAHLYASVGVLKIGNDILFNEEKIKVDRITGHGGLFRTKGVGQRVLAAAINSPISVMETAGEGGAWGIALLGSYLVNNKKGQSLADFLDESVFVSDAGVEVSPTPEDVAGFNTYIESYKAGLPIEEAAVKFKLEHHHHHH”, the “soluble on expression in E. coli” value is “soluble”.

Consider “MNDDRATAFNALKNKTVCVQGDGNSRQFYHALVEILSNHSSAIPVNKNGNDFCNAPFAQCPQDTYYFDLVDKSDNLSVKLYWRWAPEFSDIECPMKVPSGFTPGSNYSFPSGPDTLSCDINIMDAGQWELFEKDANVTTAGYSQGVSNLSKCFSSDKSAKYFWIAAYALTPEQLQIHLPYNNTDVERINEVATQGLNSTACVLNGYDVTVNAFNDTKEATTDGIHYLGWINEQVVQLFFNAVTNSSAPTVPSSNVSVTSPNVQLGQVPNLNPSTTNSFLPVQTIVTVPSSSATSASSGLNFGGSSQGGGSGIPQL”, for which the “soluble on expression in E. coli” value is listed as “not soluble”. Take “MIFCTVGSGIEGYEQSFSKISVEGYDTSVHEFPLKLALAKHFASCGKIVDIDVPRDFKKRILKSPLFIIFHAKEGESPVDKALELSGTDVGGWNVVVKSLPGQQMYRDPGGVDRFKGERTLIVKVYDTPSTLSKIDLQIGLCKHFSSCGEVTGISVLVHGNLCCHESKARVDIMGKGCVDKALELSGRTADGWKIVVYFVVPPAGRKLKPTGSGHPTIGVERMKKAELKKKAKMEMMDKGKKKRKTTE”: the “soluble on expression in E. coli” value is reported as “not soluble”. Turning to “MKVNKALTIAGSDSGGGAGIQADLKTFQELGVYGMTAITAITAQNTLGVQGVYPVSLEGITEQLNSIGTDLTPDAVKIGMLFSSEIIQIVAEYINKFGWNNIVLDPVMIAKGGASLLQQEAVQALKEYLLPVATVITPNVPEAEVLTGLEIHNIEDSKEAAKVLHELGAKYVLMKGGHAEYQGNEVIDLLFDGEKFIEFRSERIPSKQTHGSGCTFASAVTAGLAKGYSMEEAVQEAKRFISIAIEEPLHIGSGHGPTNHFAYKMNKAQV”, the “soluble on expression in E. coli” value is “not soluble”. With “AGGPGSRARAAGARGCRLRSQLVPVRALGLGHRSDELVRFRFCSGSCRRARSPHDLSLASLLGAGALRPPPGSRPVSQPCCRPTRYEAVSFMDVNSTWRTVDRLSATACGCLG”, the “soluble on expression in E. coli” value is reported as “soluble”.
